By Kd is commonly meant the constant that tells how readily two partners part at equilibrium. By koff is commonly meant a measure of how fast the partners let go of each other. By kon is commonly meant the rate constant with which the complex forms. As usually defined, the t½ is the time in which the quantity being followed falls by half.

Here are results for five molecules from patent publication US20240083986A1 (published 2024).

Experiment [1] addresses T1, Apple (Mal d 1, MyBiosource, Cat #MBS1224919) (Apple, UniProt P43211 2-159, limits assumed).
T1 construct: Bought reagent
T1 sequence (looked up): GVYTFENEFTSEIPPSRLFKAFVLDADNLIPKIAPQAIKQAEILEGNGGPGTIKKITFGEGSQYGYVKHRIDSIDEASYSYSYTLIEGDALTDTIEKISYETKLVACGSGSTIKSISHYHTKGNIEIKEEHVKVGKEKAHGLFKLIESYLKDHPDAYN
Nature of the experiment: SPR, mAb captured via anti-hFc, 25 C. In general terms: SPR reads the build-up and loss of mass on a sensor chip optically.

Experiment [2] concerns the target T2, European Hornbeam (Car b 1 isoform 2, MyBiosource, Cat #MBS1043940) (European Hornbeam, UniProt P38950 2-160, limits assumed).
T2 construct: Bought reagent
T2 sequence (looked up): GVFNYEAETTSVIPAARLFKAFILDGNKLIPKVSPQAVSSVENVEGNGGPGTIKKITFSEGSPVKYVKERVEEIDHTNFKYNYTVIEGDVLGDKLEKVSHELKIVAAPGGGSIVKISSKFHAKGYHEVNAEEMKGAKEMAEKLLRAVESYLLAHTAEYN
Nature of the experiment: SPR, mAb captured via anti-hFc, 25 C.

Experiment [3] has as its target T3, Alder (Aln g 1, MyBiosource, Cat #MBS1041484) (Alder, UniProt P38948 2-160, limits assumed).
T3 construct: Bought reagent
T3 sequence (looked up): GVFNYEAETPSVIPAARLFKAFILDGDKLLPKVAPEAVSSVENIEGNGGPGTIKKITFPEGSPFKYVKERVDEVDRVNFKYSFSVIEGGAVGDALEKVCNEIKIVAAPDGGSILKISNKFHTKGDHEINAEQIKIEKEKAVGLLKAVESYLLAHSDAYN
Nature of the experiment: SPR, mAb captured via anti-hFc, 25 C.

Experiment [4] deals with T4, European Hornbeam (Car b 1 isoform 1A & 1B, MyBiosource, Cat #MBS1200018) (European Hornbeam, UniProt P38949 2-160).
T4 construct: Bought reagent
T4 sequence (looked up): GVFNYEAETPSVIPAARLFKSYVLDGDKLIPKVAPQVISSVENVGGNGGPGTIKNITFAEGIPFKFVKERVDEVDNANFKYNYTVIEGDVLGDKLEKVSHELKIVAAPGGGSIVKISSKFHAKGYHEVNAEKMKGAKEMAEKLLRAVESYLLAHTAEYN
Nature of the experiment: SPR, mAb captured via anti-hFc, 25 C.

The target in experiment [5] is T5, CHO produced recombinant Bet v 1 containing a S85A mutation with a C-terminal myc-myc hexahistidine tag … (Betula verrucosa (birch)).
T5 chain: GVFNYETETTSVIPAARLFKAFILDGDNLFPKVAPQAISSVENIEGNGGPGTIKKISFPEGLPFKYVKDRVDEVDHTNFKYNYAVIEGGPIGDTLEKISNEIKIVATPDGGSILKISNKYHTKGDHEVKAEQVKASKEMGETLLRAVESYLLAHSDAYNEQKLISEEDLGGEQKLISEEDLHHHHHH
Description: SPR, mAb captured via anti-hFc, 37 C.

Experiment [6] addresses T6, Celery (Api g 1, MyBiosource, Cat #MBS1171376) (Celery, UniProt P49372 1-154, limits assumed).
T6 construct: Bought reagent
T6 sequence (looked up): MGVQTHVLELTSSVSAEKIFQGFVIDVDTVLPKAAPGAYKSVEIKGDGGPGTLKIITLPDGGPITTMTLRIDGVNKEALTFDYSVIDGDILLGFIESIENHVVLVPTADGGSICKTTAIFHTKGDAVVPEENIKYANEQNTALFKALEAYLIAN
Nature of the experiment: SPR, mAb captured via anti-hFc, 25 C.

In experiment [7] the target is T5, CHO produced recombinant Bet v 1 …. Nature of the experiment: SPR, mAb captured via anti-hFc, 25 C.
For experiment [8], the target named is T7, natural Bet v 1 (Indoor, Cat #NA-BV1-1) (Betula verrucosa (European white birch, …, UniProt P15494 2-160)).
T7 construct: Bought natural protein purified from birch pollen; also called nBet v 1
T7 sequence: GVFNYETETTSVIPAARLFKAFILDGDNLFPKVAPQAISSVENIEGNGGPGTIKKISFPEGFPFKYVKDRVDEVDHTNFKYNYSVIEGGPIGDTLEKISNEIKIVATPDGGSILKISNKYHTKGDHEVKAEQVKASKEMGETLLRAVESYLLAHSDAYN
Nature of the experiment: SPR Biacore, mAb captured on anti-hFc, 25C.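 Further: rate constants from sensorgrams fitted to a 1:1 model with mass transport limitation, KD and t½ derived from kinetic constants, run in HBS-ET buffer at pH 7.4.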

Experiment [9] deals with T7, natural Bet v 1 (Indoor, Cat #NA-BV1-1). Nature of the experiment: SPR Biacore, mAb captured on anti-hFc, 37C.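 Further: purified anti-Bet v 1 monoclonal antibodies, HBS-ET running buffer pH 7.4, rate constants from 1:1 model fit with mass transport limitation, KD and t½ calculated from kinetic constants.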
Experiment [10] has as its target T8, Celery (Api g 1, MyBiosource, Cat #MBS1171376) (Celery, UniProt P49372 1-154, limits assumed).
T8 construct: Bought reagent
T8 sequence (looked up): T6 sequence (looked up)
Description: SPR Biacore, 25C.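 Further: binding of related allergens to purified monoclonal anti-Bet v 1 antibodies by surface plasmon resonance in HEPES-buffered saline pH 7.4, kinetics fitted to a 1:1 model with mass transport.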

Experiment [11] addresses T9, Apple (Mal d 1, MyBiosource, Cat #MBS1224919) (Apple, UniProt P43211 2-159, limits assumed).
T9 construct: Bought reagent
T9 sequence (looked up): T1 sequence (looked up)
Nature of the experiment: SPR Biacore, 25C.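 Further: binding of related allergens to purified monoclonal anti-Bet v 1 antibodies by surface plasmon resonance in HEPES-buffered saline pH 7.4, kinetics fitted to a 1:1 model with mass transport.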

B1: H4H17045P2 (antibody, human IgG4, V domains shown)
VH: EVQLVESGGGLVQPGVSLRLSCVASGFTFSNYDITWIRQIPGKGLEWVSRISGSGGSTYFADSVKGRFIISRDNSKNTVYMQMNSLRAEDSAVYYCARRDSVLFSMNSWLDPWGQGTLVTVSS
VL: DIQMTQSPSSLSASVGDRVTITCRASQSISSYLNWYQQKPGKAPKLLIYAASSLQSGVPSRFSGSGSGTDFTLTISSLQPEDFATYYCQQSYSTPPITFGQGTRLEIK
notes: Fully human antibody with human IgG4 Fc (H4H prefix)
As for B1, the “100 nM Analyte Bound (RU)” value in [1] was -1 RU. Further, in [2], the “100 nM Analyte Bound (RU)” value stood at 5 RU and the binding result is recorded as “no binding (tested: 100 nM)”. In experiment [3], the “100 nM Analyte Bound (RU)” value was 0 RU and the binding result is recorded as “no binding (tested: 100 nM)”. In [4], the “100 nM Analyte Bound (RU)” value came to 5 RU and the binding result is “no binding (tested: 100 nM)”. In [5], the “100 nM natural Bet v 1-MHH Bound (RU)” value is 84 RU, the Kd was 14.3 nM, the koff came to 0.00232 s⁻¹ and the kon was found to be 162000 M⁻¹ s⁻¹. For the same molecule, the t½ in experiment [5] is 5 min. Moreover, in [6], the “100 nM Analyte Bound (RU)” value worked out at 0 RU and the binding result is on record as “no binding (tested: 100 nM)”. Also, in experiment [7], the “100 nM natural Bet v 1- MMH Bound (RU)” value amounted to 60 RU, the Kd came to 6.23 nM, the koff turned out to be 0.000498 s⁻¹ and the kon was 80000 M⁻¹ s⁻¹. The t½ in experiment [7] is 23 min.

B2: H4H17067P2 (antibody, human IgG4, V domains shown)
VH: EVQLVQSGAEVKKPGESLKISCSGSGYRFTNYWIAWVRQMPGKGLEWMGLIHPDDSDIRYSPSFQGQVTFSVDKSINTAYLQWSSLKASDTAMYYCTRQDGILWSHNAWFDPWGQGTLVTVSS
VL: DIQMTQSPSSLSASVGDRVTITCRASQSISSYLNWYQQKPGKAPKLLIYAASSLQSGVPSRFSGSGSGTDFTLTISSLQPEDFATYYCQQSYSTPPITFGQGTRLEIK
notes: as for B1
Regarding B2, the “100 nM Analyte Bound (RU)” value in experiment [1] is -1 RU. In addition, in experiment [2], the “100 nM Analyte Bound (RU)” value was 1 RU and the binding result was “no binding (tested: 100 nM)”. In [3], the “100 nM Analyte Bound (RU)” value came out at 2 RU and the binding result is reported as “no binding (tested: 100 nM)”. In addition, in experiment [4], the “100 nM Analyte Bound (RU)” value turned out to be 0 RU and the binding result was “no binding (tested: 100 nM)”. In experiment [5], the “100 nM natural Bet v 1-MHH Bound (RU)” value was found to be 76 RU, the Kd is 16.9 nM, the off-rate constant (koff) amounted to 0.00428 s⁻¹ and the kon came to 253000 M⁻¹ s⁻¹. In experiment [5], the t½ was determined as 2.7 min. Moreover, in [6], the “100 nM Analyte Bound (RU)” value stood at 0 RU and the binding result is given as “no binding (tested: 100 nM)”. In addition, in experiment [7], the “100 nM natural Bet v 1- MMH Bound (RU)” value came to 55 RU, the Kd amounted to 11.7 nM, the dissociation rate constant (koff) was 0.00117 s⁻¹ and the kon was 100000 M⁻¹ s⁻¹. The t½ in experiment [7] worked out at 9.9 min.

B3: H4H17027P (antibody, human IgG4, V domains shown)
VH: EVQLVESGGGLVQPGGSLRLSCAASGFTFRNYAMHWVRQAPGEGLEWVAAIYRNSDSIDYADSVKGRFTISRDNAKNSLYLQMNSLKTEDTALYYCAKDEGFLEYFDSWGQGTLVTVSS
VL: EIVLTQSPGTLSLSPGERASLSCRASQSVSSSFLAWYQQKPGQAPRLLIYGVSSRFIGIPDRFSGGGSGTDFTLTITRLEPEDFAVYYCQQYGRSPWTFGQGTKVEIK
Turning to B3, in experiment [8], the “100 nM natural Bet v 1 Bound (RU)” value is 48 RU; the affinity, expressed as Kd, was 4.32 nM; the off-rate (koff) worked out at 0.00027 s⁻¹; the kon is 62400 M⁻¹ s⁻¹. Further, in experiment [8], the t½ turned out to be 43 min. Also, in experiment [9], the “100 nM natural Bet v 1 Bound (RU)” value worked out at 67 RU; the affinity, expressed as Kd, was 9.48 nM; the koff was 0.00093 s⁻¹; the kon was determined as 98100 M⁻¹ s⁻¹. For the same molecule, in experiment [9], the t½ was determined as 12 min. For the same molecule, the binding result in experiment [10] is given as “no binding (tested: 100 nM)”. For the same molecule, in experiment [11], the binding result is “no binding (tested: 100 nM)”.

B4: H4H17038P2 (antibody, human IgG4 S228P, kappa, V domains shown)
VH: EVQLVESGGDLVQPGGSLRLSCAASGFTFSSYEMNWVRQAPGKGLEWVSFISDSSSNIYYADSVKGRFTISRDNAKKSLYLQMTSLRAEDTAVYYCAREAIGSTSFDNWGQGTLVTVSS
VL: EIVMTQSPATLSVSPGERATLSCRASQSVSSSLAWYQQKPGQAPRRLIYSASTRATGIPARFSGSGSGTEFTLTISSLQSEDFAIYYCHQYNNWPLTFGGGTKVEIKR
notes: human IgG4 Fc; also called REGN5714; MAB3
On to B4, for which the “100 nM Analyte Bound (RU)” value in experiment [1] was -1 RU; in [3], 2 RU; in experiment [4] it was 105 RU; in experiment [6], -1 RU. Also, the Kd in experiment [2] is 50.5 nM; in [4], 41.4 nM; in [5], 35.6 nM; in [7], 9.98 nM. The t½ came to 1.8 min in experiment [2], 1.9 min in experiment [4], 0.39 min in experiment [5] and 1.8 min in [7]. The binding result in experiment [3] was “no binding (tested: 100 nM)”. In addition, the “100 nM natural Bet v 1-MHH Bound (RU)” value in experiment [5] was 56 RU. Besides, the “100 nM natural Bet v 1- MMH Bound (RU)” value in experiment [7] was determined as 63 RU.

B5: H4H17033P (antibody, human IgG4, V domains shown)
VH: QVQLVQSGAEVKKPGASVKVSCKASGYTFAAHYMHWVRQAPGQGLEWMGWINTYTGGTNYGQKFQGRVTMTRDTSITTAYMELSRLRSDDTAVYYCARDRRNWNFVFEYWGQGTLVTVSS
VL: DIQMTQSPSSLSASVGDRVTISCRASQNIKNYLNWYQQKPGKAPKLLIYEASNLQSGAPSRFSGSGSGTDFTLTISSLEPEDFATYYCQQSFSIPWTFGQGTKVEIK
notes: as for B1
B5: in experiment [1], the “100 nM Analyte Bound (RU)” value came out at 1 RU and the binding result was “no binding (tested: 100 nM)”. Besides, in [2], the “100 nM Analyte Bound (RU)” value is 111 RU; the affinity, expressed as Kd, was 33.4 nM; the koff came to 0.0447 s⁻¹; the kon was 1.34e+06 M⁻¹ s⁻¹. The same molecule had a t½ in [2] of 0.3 min. Also, in [3], the “100 nM Analyte Bound (RU)” value came out at 3 RU and the binding result was “no binding (tested: 100 nM)”. Further, in experiment [4], the “100 nM Analyte Bound (RU)” value worked out at 0 RU and the binding result is on record as “no binding (tested: 100 nM)”. Also, in experiment [5], the “100 nM natural Bet v 1-MHH Bound (RU)” value amounted to 79 RU, the Kd stood at 1.34 nM, the koff came out at 0.00118 s⁻¹ and the kon amounted to 883000 M⁻¹ s⁻¹. For the same molecule, the t½ in experiment [5] is 9.8 min. In experiment [6], the “100 nM Analyte Bound (RU)” value came out at 39 RU, the dissociation constant Kd is 167 nM, the koff came out at 0.0791 s⁻¹ and the kon was found to be 475000 M⁻¹ s⁻¹. Further, the t½ in experiment [6] turned out to be 0.2 min. Moreover, in [7], the “100 nM natural Bet v 1- MMH Bound (RU)” value worked out at 67 RU, the Kd came to 0.768 nM, the dissociation rate constant (koff) amounted to 0.000415 s⁻¹ and the kon is 540000 M⁻¹ s⁻¹. Also, in [7], the t½ is 28 min.
